Entries after “also recorded” stand apart in the source; their conditions may differ.
Experiments:
[1] = test system: LHVA-93-3 PRRS virus; assay: In-vivo lung virus titer, LHVA-93-3, comparison with control oligonucleotide and Tilmicosin (Example 4); parameters: species or system swine
Protocol: Swine were inoculated intranasally with sub-lethal infectious fluid containing 40TCID50/ml PRRS virus (LHVA-93-3) with or without 2.5 nmole A505 aptamer for different time intervals. Pig body weight was monitored for 2 weeks. Viral titer in the lungs was determined by the CPE titration method (OIE Terrestrial Manual—May 2015, Chapter 2.8.7—Porcine Reproductive and Respiratory Syndrome, section 1.1.3). Other pigs were sacrificed 6 days following viral inoculation and lungs were removed and homogenized in PBS 0.1% BSA (10% w/v). Following homogenization, samples were centrifuged to remove debris and stored at −80° C.
The cells/viruses were incubated for 2-5 days and observe daily for a CPE. At day 2, seed macrophages in new microtitre plates. Fifty (50) μl of the supernatants were transferred from the plates of the first passage to the corresponding wells of the freshly seeded plates (second passage). The wells were incubated for 2-5 days and observed daily for a CPE. The results of the CPE assays were presented as log TCID50.
Tilmicosin (Pulmotil®) was purchased from Eli Lilly (Elanco®), Canada.
Were implemented as described hereinabove. A dose of 15 ug/Kg of A505 was used.
The ability of the A505 aptamer to inhibit PRRSV infection was also compared to that of one of the currently available “anti-PRRSV” drugs, the antibiotic Tilmicosin. To this end, both A505 and Tilmicosin were administered once, together with the virus, using the intra-nasal route. As is shown in Table 2 below, a dose of 60 mg/pig of Tilmicosin (1 mg/kg body weight) reduced virus titer by 0.42 log TCID50, representing a 2.6-fold reduction in virus burden. This is in comparison to a reduction by 1.21 log TCID50 affected by A505 in this particular experiment (over 10 fold reduction in virus burden).

[2] = test system: type 2 PRRSV; settings: after MTT screening of 10 candidates
Description: (§3) Using various tetrazolium (MTT) colorimetric assay procedures^[xxxvi], these aptamers have been “screened” to identify the ones having the highest and fastest binding capabilities for detection and therapeutics purposes for both types of PRRSV. It should be pointed out that the aptamer having the quickest binding efficiency but not necessarily the highest binding strength is the most suitable one for the biosensor.

[3] = test system: M-S-S-GP5 peptidic complex; assay: ELISA reverse screening: binding to M-S-S-GP5 peptidic complex, type 2; settings: type 2 PRRSV complex
Protocol: (§1) ssDNA aptamers were denatured at 80° C. for 10 min and then cooled on ice for 10 min. Aptamers (30 nmole) were mixed with 25 μg of M-S-S-GP5 peptidic complex (further described in Example 6 below) in 500 μl selection buffer (50 mM Tris-HCl; pH 7.4, 5 mM KCl, 100 mM NaCl, 1 mM MgCl2 tRNA, 0.2% BSA) at 37° C. for 30 min. Aptamer-peptide complex was purified by adding the 25 μl Ni-NTA superflow and amplified by PCR using primers directed to the common T3 sequences in the aptamer library, and 3′-primer (i.e. -[…]-3′). SELEX was repeated 3 times, following which amplified nucleotides were transformed into E. coli. PCR conditions for SELEX included 5 min 95° C./1 min 95° C./1 min 55° C./1 min 72° C./10 min 72° C. and 100 pmole of each primer.
(§2) Selected ssDNA molecules from each individual clone were biotinylated using the B-T3 which is same sequence with 5′ primer (T3 primer), and Klenow fragment (2 unit/ml). To prepare single stranded biotin conjugated CoocSeq5 aptamer for the reverse screening, T3 Primer was Biotin labelled. A 96-well flat bottom ELISA plate was prepared by coating each well with 100 μl of streptavidin (100 μg/ml) diluted in 0.1 M NaHCO3 following by a 37° C. overnight incubation. Following several washings with PBS, wells were blocked with 200 μl of PBS containing 1% BSA for 2 hours at room temperature and subsequent washing three times with PBS-T (10 mM PBS containing 0.05% (v/v) Tween-20). […]
High binding capacity ELISA plates (Immunoplate, Nunc) were coated with 100 μl allantoic fluid containing 500 TCID50 of various PRRS virus strains diluted in phosphate buffered saline (PBS) by incubating at 4° C. overnight. […] Following this incubation period, plates were washed five times in PBS-T and bound antibodies were detected using horseradish peroxidase labelled goat anti-mouse IgG conjugates (HRP). […] Reaction was terminated with 50 μl of 2M H2SO4, plates were read with a multichannel spectrophotometer at 570 nm.

[4] = test system: type 1 (Lelystad) PRRSV; settings: after MTT screening of 10 candidates
Description: as §3

[5] = test system: M-S-S-GP5 peptidic complex; assay: ELISA reverse screening: binding to M-S-S-GP5 peptidic complex, type 1; parameters: species or system type 1 PRRSV (Lelystad); settings: type 1 PRRSV complex
Protocol: as §1
as §2, with “Tween-20). Thereafter, 100 μl of 2.5 pmole/100 μl biotinylated-ssDNA were added to the wells and incubated at 37° C. for 2 hours followed by washing four times with PBS-T. T3 primer was used as negative control. Following washing, 100 μl of fluid containing 2 μg histidine labelled M-S-S-GP5 peptidic complex were added to the indicated wells and incubated at 37° C. for 2 hours. The wells were then washed for 4 times with PBS-T. The reverse screening assay was completed by ELISA.” for “Tween-20).”

`CC[C@H]1OC(=O)C[C@@H](O)[C@H](C)[C@@H](O[C@@H]2O[C@H](C)[C@@H](O)[C@H](N(C)C)[C@H]2O)[C@@H](CCN2C[C@H](C)C[C@H](C)C2)C[C@@H](C)C(=O)/C=C/C(C)=C/[C@@H]1CO[C@@H]1O[C@H](C)[C@@H](O)[C@@H](OC)[C@H]1OC` [Tilmicosin, reference compound] was tested, and the “Reduction Factor” value ([1]; Table 2, administered once with the virus, intra-nasal) was 2.6, the “Δ (log TCID50), reduction of virus titer” value ([1]; administered once together with the virus, intra-nasal, Tilmicosin 60 mg/pig (1 mg/kg), A505 15 ug/Kg) was 0.42 log TCID50 and the “reduction in virus burden” value ([1]; administered once with the virus, intra-nasal) was 2.6 fold.

B1: A507: ssDNA aptamer binding type 2 PRRSV M-S-S-GP5 complex (nucleic acid)
DNA: GGGCGACCCTGAAGAGGTTTGCATATTATAGTTATAGGAGGTGTGTAATGGACGAAACGGTGAAAGCCGTAGGTTGCCC
modifications: DNA, backbone and methylation of C not given here
For B1, the “binding capabilities from biosensing and therapeutic perspectives” value (from here on “binding capabilities”) [2] was “highest binding capabilities” and the “binding to the M-S-S-GP5 complex/heterodimer” value [3] was “binding capacity to the M-S-S-GP5 complex; also recorded: found to bind the M-S-S-GP5 heterodimer”.

B2: A501: ssDNA candidate aptamer for type 2 PRRSV M-S-S-GP5 complex; used as control irrelevant nucleotide in Example 4 (nucleic acid)
DNA: GGGCGACCCTGAAGAGAAAGGTGAGTTTATTGCGGGGGTTATTTATTGCTTCGAAACGGTGAAAGCCGTAGGTTGCCC
modifications: DNA, backbone and methylation of C not given here
With B2 the “change in lung virus titer” value ([1]; LHVA-93-3, FIG. 13b) was “insignificant change in the viral titer”.

B3: PEU-962: ssDNA aptamer binding type 1 (Lelystad) PRRSV M-S-S-GP5 complex (nucleic acid)
DNA: GGGCGACCCTGAAGAGGATAGACAATAGCACACCACGCCCCTGCCACGAAACGGTGAAAGCCGTAGGTTGCCC
modifications: DNA, backbone and methylation of C not given here
In the case of B3, the “binding capabilities” value [4] is reported as “good binding capabilities” and the “binding to the M-S-S-GP5 complex/heterodimer” value [5] is reported as “binding capacity to the M-S-S-GP5 complex; also recorded: found to bind the M-S-S-GP5 heterodimer”.

B4: PEU-852: ssDNA aptamer binding type 1 (Lelystad) PRRSV M-S-S-GP5 complex (nucleic acid)
DNA: GGGCGACCCTGAAGAGGACACTGCACGTACACAACGAGGATGAACACGAAACGGTGAAAGCCGTAGGTTGCCC
modifications: DNA, backbone and methylation of C not given here
B4 was tested, and the “binding capabilities” value [4] was “good binding capabilities” and the “binding to the M-S-S-GP5 complex/heterodimer” value [5] was “binding capacity to the M-S-S-GP5 complex; also recorded: found to bind the M-S-S-GP5 heterodimer”.

B5: PEU-499: ssDNA aptamer binding type 1 (Lelystad) PRRSV M-S-S-GP5 complex (nucleic acid)
DNA: GGGCGACCCTGAAGAGTACACACGGGACACACACACACTCACTAGACGAAACGGTGAAAGCCGTAGGTTGCCC
modifications: DNA, backbone and methylation of C not given here
With B5 the “binding capabilities” value [4] was “good binding capabilities” and the “binding to the M-S-S-GP5 complex/heterodimer” value [5] was “binding capacity to the M-S-S-GP5 complex; also recorded: found to bind the M-S-S-GP5 heterodimer”.

B6: PEU-424: ssDNA aptamer binding type 1 (Lelystad) PRRSV M-S-S-GP5 complex (nucleic acid)
DNA: GGGCGACCCTGAAGAGGATGTTGATAGAGCGCCGACCACACACGCACGAAACGGTGAAAGCCGTAGGTTGCCC
modifications: DNA, backbone and methylation of C not given here
With B6 the “binding capabilities” value [4] was “good binding capabilities” and the “binding to the M-S-S-GP5 complex/heterodimer” value [5] was “binding capacity to the M-S-S-GP5 complex; also recorded: found to bind the M-S-S-GP5 heterodimer”.

B7: PEU-842: ssDNA aptamer binding type 1 (Lelystad) PRRSV M-S-S-GP5 complex (nucleic acid)
DNA: GGGCGACCCTGAAGAGGACCAGAAGCACGGACCACACACAGCGTATCGAAACGGTGAAAGCCGTAGGTTGCCC
modifications: DNA, backbone and methylation of C not given here
With B7 the “binding capabilities” value [4] was “good binding capabilities” and the “binding to the M-S-S-GP5 complex/heterodimer” value [5] was “binding capacity to the M-S-S-GP5 complex; also recorded: found to bind the M-S-S-GP5 heterodimer”.

Reference: patent US11001846B2, “Aptamers, nucleic acid molecules, polynucleotides, synthetic antibodies compositions for detecting PRRS viruses and treating PRRS virus infection” (AEROVIRUS TECHNOLOGIES INC., priority 2015, dated 2021)
